One experiment has as its target T1, human CD22 domain5-7-His (human, UniProt P20273 414-687).
T1 construct: also called hCD22 domain5-7-His; not shown: His tag
T1 sequence: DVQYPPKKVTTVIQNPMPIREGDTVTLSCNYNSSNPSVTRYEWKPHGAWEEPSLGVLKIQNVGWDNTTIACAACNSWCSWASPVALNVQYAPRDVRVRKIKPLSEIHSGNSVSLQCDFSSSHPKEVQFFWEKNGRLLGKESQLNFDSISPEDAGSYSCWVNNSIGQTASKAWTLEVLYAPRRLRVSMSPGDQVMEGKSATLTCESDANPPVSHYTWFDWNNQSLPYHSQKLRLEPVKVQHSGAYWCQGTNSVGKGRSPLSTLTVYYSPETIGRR
Briefly: ELISA, plate coated with human CD22 domain5-7-His.

Experiment [1] has as its target T2, human CD22-ECD-His protein (human, UniProt P20273 20-687).
T2 construct: Recombinant, from HEK293E cells; also called hCD22-ECD-His; human CD22-His protein; not shown: His tag
T2 sequence: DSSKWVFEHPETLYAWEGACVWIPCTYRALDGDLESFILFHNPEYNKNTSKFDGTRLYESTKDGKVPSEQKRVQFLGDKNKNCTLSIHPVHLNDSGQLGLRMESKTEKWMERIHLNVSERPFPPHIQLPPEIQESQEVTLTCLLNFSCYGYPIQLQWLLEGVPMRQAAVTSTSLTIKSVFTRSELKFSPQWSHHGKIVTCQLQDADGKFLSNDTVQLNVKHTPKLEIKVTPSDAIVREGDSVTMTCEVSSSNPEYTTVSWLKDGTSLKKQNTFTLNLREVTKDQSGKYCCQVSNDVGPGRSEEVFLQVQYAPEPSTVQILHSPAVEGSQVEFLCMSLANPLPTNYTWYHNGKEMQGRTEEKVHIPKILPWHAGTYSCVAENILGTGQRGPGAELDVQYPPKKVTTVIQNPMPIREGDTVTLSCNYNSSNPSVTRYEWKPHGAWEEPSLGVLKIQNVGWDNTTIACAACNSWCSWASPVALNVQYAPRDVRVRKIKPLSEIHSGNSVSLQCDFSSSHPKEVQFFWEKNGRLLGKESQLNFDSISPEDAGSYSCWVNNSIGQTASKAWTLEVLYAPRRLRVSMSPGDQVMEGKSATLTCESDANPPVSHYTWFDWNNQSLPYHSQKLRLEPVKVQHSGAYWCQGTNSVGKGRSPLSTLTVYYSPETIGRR
The experiment in a line: SPR (Biacore), antibody captured on Protein A chip, CD22-ECD-His in solution. How it is done: Sample buffer and running buffer were HBS-EP+(10 mM HEPES, 150 mM NaCl, 3 mM EDTA, 0.05% surfactant P20) (GE Healthcare; BR-1006-69). The flow-through cell was set to 25° C. The sample block was set to 16° C. Both were pretreated with the running buffer. In each cycle, the antibody to be tested was first captured with a Protein A chip, then a single concentration of CD22 antigen protein was injected. The binding and dissociation process of the antibody and the antigen protein was recorded, and finally Glycine pH 1.5 (GE Healthcare; BR-1003-54) was used to complete chip regeneration. Binding was measured by injecting different concentrations of recombinant human CD22-ECD His protein in solution for 240 s with a flow rate of 30 μL/min. The concentration started from 200 nM (see the detailed results for the actual concentration in the test) and was diluted at 1:1, making a total of 5 concentrations. The dissociation phase was monitored for up to 600 s and was triggered by switching from sample solution to running buffer. The surface was regenerated by washing with a 10 mM of glycine solution (pH 1.5) for 30 s at a flow rate of 30 μL/min. Bulk refractive index difference was corrected by subtracting the response obtained from the goat anti-human Fc surface. Blank injection was also subtracted (=double reference). For calculation of apparent KD and other kinetic parameters, Langmuir 1:1 model was used.

Experimental findings from US20240084003A1 (SIMCERE ZAIMING PHARMACEUTICAL, published 2024) are described below.

B1: F2.343.16 (antibody, human IgG1, lambda, V domains shown)
VH: QVQLKQSGPGLVQPSQSLSITCTVSGFSLTGYGVQWVRQSPGKGLEWLGVIWGGGGTDYNAAFISRLNIIKDNSKSQVFFKMNSLQADDTAIYYCARYSKYGHFDVWGTGTAVTVSS
VL: QAVVTQESALTTSPGETVTLTCRSSTGAVTTSNYANWVQEKPDHLFTGLIGGTYNRVPGVPARFSGSLIGDKAALTITGAQTEDEAIYFCALWYSNHFWVFGGGTKLTVLG
notes: Chimeric IgG1 lambda
Consider B1, for which, in the experiment with human CD22 domain5-7-His, the binding result is given as “no binding”. In experiment [1], the affinity, expressed as Kd, was 4970 nM; the koff worked out at 0.101 s⁻¹; the kon was found to be 20400 M⁻¹ s⁻¹.

B2: F1.7.6 (antibody, human IgG1, kappa, V domains shown)
VH: EIQLQQSGPELVKPGTSVKVSCKASGYDFTRYNMYWVKQSHGKSLEWIGYIDPYNGDTRYNQKFKGKATLTVDKSSSTAYMHLNSLTSEDSAVYYCEAIYYDMEGYALDYWGQGTSVTVSS
VL: DIVMSQSPSSLAVSVGEKVTMSCKSSQSLLYSNNQKNYLAWYQQKPGQSPKKLIYWASTRESGVPDRLTGSGSGTDFTLTISSVTAEDLAVYYCQQFYSYPWTFGGGTKLEIKR
notes: Chimeric IgG1 kappa
As for B2, the binding result with human CD22 domain5-7-His is reported as “no binding”. Further, in experiment [1], the dissociation constant (Kd) was 1.7 nM, the off-rate (koff) turned out to be 0.000203 s⁻¹ and the on-rate constant (kon) amounted to 120000 M⁻¹ s⁻¹.

B3: F2.121.9 (antibody, human IgG1, lambda, V domains shown)
VH: EVQLVESGGGLVKPGGSLKLSCAASGFTFSDYVMSWIRQTPEKRLEWVATISDAGSYTFYPDNLKGRFTISRDNAKNNLYLQMNHLTSEDTAFYYCAIIYFGNYGGYWGQGTLVTVSV
VL: QAVVTQESALTTSPGGTVVLTCRSNTGAVTTSNYANWVQEKPDHLFTGLIGGTSNRAPGVPVRFSGSLIGDKAALTITGAQTEDDAMYFCALWYSTHWVFGGGTKLTVLG
notes: Chimeric IgG1 lambda
Take B3: in the experiment with human CD22 domain5-7-His, the binding result was “no binding”. In experiment [1], this molecule displayed a Kd of 80 nM, a dissociation rate constant (koff) of 0.000393 s⁻¹ and a kon of 4910 M⁻¹ s⁻¹.

B4: F2.70.2 (antibody, human IgG1, lambda, V domains shown)
VH: EVQLVESGGGLVKPGGSLKLSCAASGFTFSDYGMNWFRQAPEKGLEWVAYISRGSHTIYYADTVKGRFTISRDNAKNTLFLQMTSLRSNDTAMYYCVRMAGYYAMDYWGQGTSVTVSS
VL: QLVLTQSSSASFSLGASAKLTCTLSSQHSSYIIEWYQQQPLKPPKYVMELKKDGSHSTGDGIPDRFSGSSSGADRYLSISNIQPEDEAIYICGVGDTIKEQFVYVFGGGTKVTVLG
notes: Chimeric IgG1 lambda
On to B4, for which the binding result in the experiment with human CD22 domain5-7-His is on record as “no binding”. For the same molecule, in experiment [1], the Kd was found to be 10.7 nM, the dissociation rate constant (koff) came to 0.000744 s⁻¹ and the kon came to 69500 M⁻¹ s⁻¹.

B5: F2.127.11 (antibody, human IgG1, lambda, V domains shown)
VH: QVTLKESGPGILQPSQTLSLTCSFSGFSLSTFGMGVGWIRQPSGKGLEWLAHIWWDDDKHYNPALKSRLTISKDTSRNQVFLKIANVDTADGATYFCARDNWVSSLDYWGQGTSVIVSS
VL: QPVITQSSSASFSLGASAELTCTLSSQHSTYTIEWYQQQPLKPPKYVMGLKKDGSHSTGDGIPDRFSGSSSGADRYLSISNIQPEDEAIYICGVSDTIKEQFVYVFGGGTKVTVLG
notes: Chimeric IgG1 lambda
For the molecule B5, the binding result in the experiment with human CD22 domain5-7-His was “no binding”. In experiment [1], this molecule came in with an equilibrium dissociation constant (Kd) of 2.93 nM, a koff of 0.00066 s⁻¹ and an on-rate constant (kon) of 226000 M⁻¹ s⁻¹.

B6: F2.104.10 (antibody, human IgG1, lambda, V domains shown)
VH: EVQLVESGGGFVKPGGSLKLSCAASGFTFSDYGMNWFRQAPEKGLEWVAYISRGSHTIYYADTVKGRFTISRDNAENTLFLQMTSLRSNDTAMYYCVRMAGYYAMDYWGQGTSLTVSS
VL: QLVLTQSSSASFSLGASAKLTCTLSSQHSSYIIEWYQQQPLKPPKYVMEVKKDGSHSTGDGIPDRFSGSSSGADRYLSISNIQSEDEAIYICGVGDTIKEQFVYVFGGGTKVTVLG
notes: Chimeric IgG1 lambda
In the case of B6, the binding result with human CD22 domain5-7-His is “no binding”. In experiment [1], this molecule came in with a Kd of 8.54 nM, an off-rate constant (koff) of 0.00061 s⁻¹ and a kon of 71400 M⁻¹ s⁻¹.

B7: F1.231.15 (antibody, IgG1, V domains shown)
VH: QVQLQQPGAELVKPGASVKLSCKTSGYTFTIYWMQWVKQRPGRGLEWIGRIDPHSGDTHYNENFTTKVTLTVDETSNTAYMHLSGLTSEDSAVYYCARRDYSYYVLDYWGQGTSVTVSS
VL: DVVLTQTPLSLPVSLGDQASISCRSSQSLVHINGDTYLHWYLQKPGQSPKLLIYTVFNRFSGVPDRFSGSGSGTDFTLKISRVEAEDLGAYFCSQSTHVPYTFGGGTKLEIKR
notes: Chimeric IgG1 kappa
On to B7, for which, in the experiment with human CD22 domain5-7-His, the binding result was “no binding”. The same molecule displayed a Kd in experiment [1] of 44.8 nM.

B8: F1.62.10 (antibody, human IgG1, kappa, V domains shown)
VH: QVQLQQSGPELVKPGASVKISCKASGYEFSSIWMNWVKQRPGEGLEWIGRIFPGDGEINYNEKFKGKATLTADRSSTTAYMQLSSLTSEDSAVYFCAGWRIYYGTYGAMDYWGQGTSVTVSS
VL: DIQMTQITSSLSASLGDRVTISCRASQDIGNYLNWYQQKPDGTVKLLIYYTSRLHSGVPSRFSGSGSRTDYSLTISNLQQEDIATYFCQQGNTLPWTFGGGTKLEIKR
notes: Chimeric IgG1 kappa
On to B8, for which the binding result in the experiment with human CD22 domain5-7-His is “no binding”. In addition, in experiment [1], binding was put at a Kd of 29.3 nM, the koff amounted to 0.000399 s⁻¹ and the kon was 13600 M⁻¹ s⁻¹.

B9: F2.55.1 (antibody, human IgG1, lambda, V domains shown)
VH: QVTLKESGPGILQPSQTLSLTCSFSGFSLSTFPLGVGWIRQPSGKGLEWLAHVWWNDDDYYNPALKSRLTISKDTSNTRVFLSVASVDTAETATYYCARLNWDRWYFDVWGTGTTVTVSS
VL: QLVLTQSSSASFSLGASAKLTCTLSSQHSAYTVEWYQQQPLKPPKYVMELKKDGSHSTGDGIPDRFSGSSSGADRYLSISNIQPEDEAIYICGVGDTVKEQFVFGGGTKVTVLG
notes: Chimeric IgG1 lambda
On to B9, for which, in the experiment with human CD22 domain5-7-His, the binding result was “no binding”. In experiment [1], this molecule registered a dissociation constant Kd of 0.586 nM, a koff of 7.42e-05 s⁻¹ and an on-rate constant (kon) of 127000 M⁻¹ s⁻¹.

B10: F2.42.9 (antibody, human IgG1, lambda, V domains shown)
VH: QVTLKESGPGILQPSQTLSLTCSFSGFSLSTFDRGVGWIRQPSGKGLEWLAHIWWNDKKFYNPVLKSRLTISKDTSKNQVFLTIANVDSADTATYSCARIVWDKYYFDYWGQGIPLTVSS
VL: QLVLTQSSSASFSLGASAKLTCTLSSQHSAYTIEWYQQQPLKPPKFVMDLKKDGSHSTGDGIPARFSGSSSGADRYLTISNIQPEDEAIYICGVGDTIKEQYVFGGGTKVTVLG
notes: Chimeric IgG1 lambda
With B10, in the experiment with human CD22 domain5-7-His, the binding result was “no binding”. In experiment [1], this molecule showed a Kd of 10 nM, a dissociation rate constant (koff) of 0.000663 s⁻¹ and a kon of 66100 M⁻¹ s⁻¹.

B11: F1.280.1 (antibody, human IgG1, kappa, V domains shown)
VH: QIQLVQSGPELKKPGETVKISCKASGYTFTTYGMSWVKQTPGKGLTWMGWINTDSGVPTYADDFKRRFAFSLEASATTAYLQINNLKNEDTATYFCARGGPDYWGQGTTLTVSS
VL: DILLTQSPATLSVTPGETVSLSCRASQSIYKNLHWYHQKSHRSPRLLIKYASDSISGIPSRFTGSGSGTNFTLSINSVKPEDEGIYYCLQGYIVPLTFGAGTKLELKR
notes: Chimeric IgG1 kappa
Regarding B11, in the experiment with human CD22 domain5-7-His, the binding result was “no binding”. In experiment [1], binding was characterised by a dissociation constant (Kd) of 6.73 nM, the koff came to 0.000423 s⁻¹ and the on-rate (kon) worked out at 62900 M⁻¹ s⁻¹.

B12: F1.161.7 (antibody, human IgG1, kappa, V domains shown)
VH: QVQLQQPGAELVKPGASVKMSCKASGYTFTSYWISWVKQRPGQGLEWIGDIYPGTGSSNYNEKFKSKATLTVDTSSSTAYMQLSSLTSEDSAVYYCARLKFEGIGYWGQGTTLTVSS
VL: QIVLTQSPAIMSASLGEEITLTCSASSSVSYMHWFQQKSGTSPKLLIYSISNLASGVPSRFSGSGSGTFYSLTISSVEAEDAADYYCHQWSSYPWTFGGGTKLEIKR
notes: Chimeric IgG1 kappa
With B12, the binding result with human CD22 domain5-7-His was “no binding”. In experiment [1], the equilibrium dissociation constant (Kd) was found to be 5.88 nM, the off-rate (koff) was found to be 0.00118 s⁻¹ and the kon is 201000 M⁻¹ s⁻¹.
